Assay results published in patent US7498429B2, “AHAS small subunit promoter” (priority 1998, dated 2009).

How the values were obtained:
Format in all cases: biochemical
[1] = biological target: T1, Arabidopsis AHAS large subunit (wild type) (Arabidopsis thaliana, UniProt P17597); experiment: AHAS assay of purified wild type large subunit with added substances
T1 construct: GST (glutathione transferase) (N, cleaved yes); made in house; host or cells: E. coli DH5alpha
T1 sequence (P17597 56-670): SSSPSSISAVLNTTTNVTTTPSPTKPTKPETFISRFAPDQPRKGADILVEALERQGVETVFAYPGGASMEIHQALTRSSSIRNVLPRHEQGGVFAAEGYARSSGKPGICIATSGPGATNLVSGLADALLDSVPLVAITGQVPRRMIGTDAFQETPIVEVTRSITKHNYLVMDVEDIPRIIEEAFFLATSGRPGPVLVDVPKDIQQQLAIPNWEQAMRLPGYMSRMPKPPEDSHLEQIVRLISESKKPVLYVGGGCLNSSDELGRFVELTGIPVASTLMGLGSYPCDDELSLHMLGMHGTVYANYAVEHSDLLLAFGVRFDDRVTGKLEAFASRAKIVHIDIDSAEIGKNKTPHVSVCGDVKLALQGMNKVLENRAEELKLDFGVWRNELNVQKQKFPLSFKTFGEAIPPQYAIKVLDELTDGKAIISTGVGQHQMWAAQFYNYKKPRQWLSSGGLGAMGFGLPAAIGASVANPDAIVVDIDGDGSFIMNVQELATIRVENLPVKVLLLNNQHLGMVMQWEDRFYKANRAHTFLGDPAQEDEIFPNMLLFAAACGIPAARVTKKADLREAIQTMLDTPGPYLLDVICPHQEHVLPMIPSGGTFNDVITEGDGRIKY
Protocol: (§1) AHAS assays. AHAS assays were performed with slight modification as described by Singh et al. {Singh et al., 1988}. AHAS activity was assayed in 1× AHAS assay buffer (50 mM HEPES pH 7.0, 100 mM pyruvate, 10 mM MgCl2, 1 mM TPP, and 50 μM FAD). A final concentration of 1× assay buffer was obtained either by dilution of enzyme extracted in 2× assay buffer or addition of enzyme to make a final concentration 1×AHAS assay buffer. All assays containing imazethapyr and associated controls contained a final concentration of 5% DMSO due to addition of imazethapyr to assay mixtures as a 50% DMSO solution. Assays were performed in a final volume of 250 μL at 37° C. in microtiter plates.
Effects of Dithiothreitol. The effect of dithiothreitol (DTT) in Phosphate Buffered Saline (MTPBS) on AHAS large subunit enzyme activity was measured. Experiments were carried out with or without 3 mM DTT in the purified protein solution of large subunit. The assays were conducted as above. […] Moreover, in the absence of DTT, large subunit activity degraded over the 4 day period (FIG. 6).
Effects of Bovine Serum Albumin. To determine whether the enhancement of the large subunit was specific to the small subunit, another nonspecific control which tested the effects of bovine serum albumin was run. To a fixed amount of large subunit an increasing amount of a 0.25 mg/mil BSA solution was added.
(§2) The following experiments used the small subunit and large subunit proteins purified as described in Example 2 above. The plasmid F1 containing the AHAS small subunit gene from Arabidopsis was expressed in E. coli and partially purified. The protein concentration of the sample was determined and aliquots of increasing concentration were added to a constant amount of purified Arabidopsis large subunit.

[2] = biological target: T2, herbicide-resistant mutant (Met124 His) large subunit Arabidopsis AHAS protein (Arabidopsis thaliana, UniProt P17597, M124H); experiment: AHAS assay of herbicide-resistant mutant large subunit with added small subunit; conditions: mutant with methionine at position 124 substituted by histidine (FIG. 9)
T2 construct: GST (glutathione transferase) (N, cleaved yes); made in house; host or cells: E. coli DH5alpha
Protocol: as §1, §2
In another experiment, a herbicide-resistant mutant of the large subunit enzyme (substitution mutation at position 124, methionine substituted by histidine) was used.

[3] = biological target: T3, Arabidopsis AHAS large subunit (Arabidopsis thaliana, UniProt P17597); experiment: Stability of AHAS large subunit activity on storage in MTPBS with or without DTT
T3 construct: GST (glutathione transferase) (N, cleaved yes); made in house; host or cells: E. coli DH5alpha
T3 sequence (P17597 56-670): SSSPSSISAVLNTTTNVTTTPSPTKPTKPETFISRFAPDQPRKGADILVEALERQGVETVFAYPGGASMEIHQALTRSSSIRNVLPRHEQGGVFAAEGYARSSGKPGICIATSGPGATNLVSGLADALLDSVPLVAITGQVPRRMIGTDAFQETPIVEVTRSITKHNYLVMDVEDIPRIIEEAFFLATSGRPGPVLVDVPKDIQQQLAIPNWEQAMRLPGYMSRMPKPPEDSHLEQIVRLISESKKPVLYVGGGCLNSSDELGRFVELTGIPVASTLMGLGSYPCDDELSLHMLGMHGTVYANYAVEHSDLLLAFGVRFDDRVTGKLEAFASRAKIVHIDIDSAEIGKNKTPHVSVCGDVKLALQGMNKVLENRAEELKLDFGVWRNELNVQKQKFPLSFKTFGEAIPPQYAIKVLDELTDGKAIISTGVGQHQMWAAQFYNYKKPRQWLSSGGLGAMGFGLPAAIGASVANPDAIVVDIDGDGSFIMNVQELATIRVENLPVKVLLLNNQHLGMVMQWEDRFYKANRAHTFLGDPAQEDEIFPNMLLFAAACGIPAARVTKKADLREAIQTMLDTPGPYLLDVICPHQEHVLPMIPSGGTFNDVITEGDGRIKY
Protocol: The cell pellet from 1 liter of cell culture was resuspended in 10 ml of MTPBS (150 mM NaCl, 16 mM Na2HPO4, 4 mM NaH2PO4), pH 7.3 (Smith and Johnson Gene 67: 31-40, […]) and 100 μg/ml of lysozyme was added. The suspension was adjusted to 5 mM dithiothreitol. Triton X-100 was added to a final concentration of 1% by addition of a 20% Triton X-100 in MTPBS solution. The cells were shaken gently at 30° C. for 15 minutes and were then cooled to 4° C. on ice and sonicated for 8-10 seconds using a microtip probe, duty cycle 70%, output control at maximum for the microtip pulser. The sonicate was centrifuged two times in a J20 rotor, 17,000 rpm, 4° C., 10 minutes, to remove insoluble material. Lysate was added to 150 mg (dry weight) of glutathione agarose (equilibrated and hydrated in MTPBS) and inverted for 30 minutes at 4° C. Agarose was settled by centrifugation at 500 rpm for 5 minutes and was washed with ice cold MTPBS by repeated centrifugation cycles until the A280 of the wash matched that of MTPBS. Agarose was transferred to an appropriate column for elution. Fusion proteins were eluted with 50 mM Tris-HCl, 5 mM reduced glutathione into 1 ml fractions. […]
Effects of Dithiothreitol. The effect of dithiothreitol (DTT) in Phosphate Buffered Saline (MTPBS) on AHAS large subunit enzyme activity was measured. […]

T2 sequence (P17597 56-670 M124H): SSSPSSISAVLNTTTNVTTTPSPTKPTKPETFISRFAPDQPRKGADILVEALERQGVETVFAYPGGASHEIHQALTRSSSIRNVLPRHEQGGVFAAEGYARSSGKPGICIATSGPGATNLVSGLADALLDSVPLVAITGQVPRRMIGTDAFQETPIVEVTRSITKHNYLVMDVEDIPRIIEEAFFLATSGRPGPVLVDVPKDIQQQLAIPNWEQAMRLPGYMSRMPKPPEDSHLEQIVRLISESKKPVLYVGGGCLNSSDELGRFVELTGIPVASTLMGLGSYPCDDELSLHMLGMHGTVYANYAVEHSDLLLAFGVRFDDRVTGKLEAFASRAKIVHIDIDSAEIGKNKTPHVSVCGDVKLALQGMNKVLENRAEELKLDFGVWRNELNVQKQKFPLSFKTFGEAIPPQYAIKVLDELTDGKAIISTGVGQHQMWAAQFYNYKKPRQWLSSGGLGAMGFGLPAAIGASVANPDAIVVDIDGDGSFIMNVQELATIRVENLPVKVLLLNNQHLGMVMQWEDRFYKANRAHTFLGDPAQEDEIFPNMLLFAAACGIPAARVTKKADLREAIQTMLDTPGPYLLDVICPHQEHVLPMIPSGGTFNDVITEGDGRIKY
T2 sequence (Q93YZ7 233-491 P488L, further chain): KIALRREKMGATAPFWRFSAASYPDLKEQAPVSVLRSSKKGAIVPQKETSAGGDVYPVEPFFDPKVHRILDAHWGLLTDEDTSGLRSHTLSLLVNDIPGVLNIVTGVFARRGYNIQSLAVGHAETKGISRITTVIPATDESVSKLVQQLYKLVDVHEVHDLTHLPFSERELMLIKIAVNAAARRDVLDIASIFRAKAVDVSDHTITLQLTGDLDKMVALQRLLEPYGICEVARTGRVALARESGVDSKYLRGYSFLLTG

O[C@H](CS)[C@H](O)CS (racemic) [DTT, dithiothreitol]
effect on catalytic activity of the AHAS large subunit ([1]; 3 mM DTT in MTPBS versus no DTT (FIG. 5 vs FIG. 6)): enhanced dramatically | stabilization and activation of the enzyme compared with other sulfhydryl reductants ([1]; versus reduced glutathione and β-mercaptoethanol): better than reduced glutathione and β-mercaptoethanol

Arabidopsis small subunit protein: Arabidopsis AHAS small subunit expressed from plasmid F1 in E. coli and partially purified
effect on enzymatic activity of the catalytic large subunit ([1]; increasing small subunit (from plasmid F1) added to constant wild type large subunit (FIG. 8)): enhances the level of enzymatic activity | effect on enzymatic activity of herbicide-resistant form of the large subunit [2]: also enhanced

B1: Arabidopsis large subunit: purified wild type Arabidopsis AHAS large subunit protein expressed in E. coli (pAC774) (protein)
chain: SSISAVLNTTTNVTTTPSPTKPTKPETFISRFAPDQPRKGADILVEALERQGVETVFAYPGGASMEIHQALTRSSSIRNVLPRHEQGGVFAAEGYARSSGKPGICIATSGPGATNLVSGLADALLDSVPLVAITGQVPRRMIGTDAFQETPIVEVTRSITKHNYLVMDVEDIPRIIEEAFFLATSGRPGPVLVDVPKDIQQQLAIPNWEQAMRLPGYMSRMPKPPEDSHLEQIVRLISESKKPVLYVGGGCLNSSDELGRFVELTGIPVASTLMGLGSYPCDDELSLHMLGMHGTVYANYAVEHSDLLLAFGVRFDDRVTGKLEAFASRAKIVHIDIDSAEIGKNKTPHVSVCGDVKLALQGMNKVLENRAEELKLDFGVWRNELNVQKQKFPLSFKTFGEAIPPQYAIKVLDELTDGKAIISTGVGQHQMWAAQFYNYKKPRQWLSSGGLGAMGFGLPAAIGASVANPDAIVVDIDGDGSFIMNVQELATIRVENLPVKVLLLNNQHLGMVMQWEDRFYKANRAHTFLGDPAQEDEIFPNMLLFAAACGIPAARVTKKADLREAIQTMLDTPGPYLLDVICPHQEHVLPMIPSGGTFNDVITEGDGRIKY
stability of large subunit activity ([3]; absence of DTT, 4 day period (FIG. 6)): degraded | stability of large subunit ([3]; in the presence of 3 mM DTT, 1 month, stored at 4° C.): very stable
